Assay [1] addresses HA-PEG10 gag-pol (2x HA-tagged human PEG10, AA1-708) (Homo sapiens) (UniProt Q86TG7). Put plainly: cell-based or functional assay.
For assay [2], the target named is T1, FLAG-HsRTL8c-3'UTR (3x FLAG-tagged human RTL8c, AA1-113) (Homo sapiens, UniProt A6ZKI3 1-113).
T1 construct: range 1-113; Expressed in HEK293 cells from pcDNA3.1; also called FLAG-RTL8c; human FLAG-RTL8; not shown: 3x FLAG tag (N-terminal)
The experiment in a line: crosslinking co-immunoprecipitation, IP-FLAG, HEK293 lysate, western blot. An excerpt: HA-PEG10 was visible as four distinct bands representing gag-pol, gag, and two self-cleavage products generated via activity of the PEG10 protease domain^{16,36,37}. The 37 kDa band represents a retrovirus-like capsid fragment, and the 22 kDa band reflects a protein fragment consisting of the N-terminal ~100 amino acids of the protein (referred to as the ‘N-terminal fragment’, or ‘NTF’) 16. Upon immunoprecipitation of HA-PEG10, Applicants observed co-immunoprecipitation of FLAG-RTL8c (FIG. 3a).
Beads were first crosslinked to antibodies. Primary antibodies (5 μg) or isotype controls (5 μL) were incubated with 40 μL protein A (Invitrogen) or protein G (Pierce) bead slurry for 30 min to couple antibodies to beads. After coupling, beads were collected by centrifugation and the supernatant discarded. Unless otherwise stated, all incubations and washes were performed with end-over-end rotation at room temperature. All centrifugation to collect beads was performed 2,500×g for 2 min. Beads were washed twice (1 mL 0.2M sodium borate, pH 9 for 1 min), resuspended in 400 μL 20 mM dimethyl pimelimidate (DMP, Thermo) and incubated for 30 min to crosslink antibodies. After crosslinking, beads were washed twice (1 mL 0.2M ethanolamine (EMD Millipore) pH 8 for 5 min) and incubated in 1.4 mL 0.2M ethanolamine for two hr. Beads were then washed twice (1 mL PBS for 5 min). […]
Background: A western blot detects proteins with antibodies after separation by electrophoresis.

For assay [3], the target named is T1, FLAG-HsRTL8c-3'UTR (3x FLAG-tagged …). The experiment in a line: co-immunoprecipitation with FLAG-RTL8c, western blot (FIG. S6b).

T1 sequence (A6ZKI3 whole entry, the tested form may be a part): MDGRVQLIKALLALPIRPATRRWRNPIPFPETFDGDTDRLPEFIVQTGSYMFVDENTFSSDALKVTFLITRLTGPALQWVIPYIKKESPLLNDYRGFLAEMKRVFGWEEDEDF

With “HA-HsRTL8c-3'UTR (2x HA-tagged human RTL8c, AA1-113) (from UniProt A6ZKI3 1-113)”, the abundance of HA-RTL8c relative to HA-PEG10 in the VLP fraction (western blot) in assay [1] was 5%.

B1: N-terminal fragment of HA-PEG10 (22 kDa self-cleavage product, N-terminal ~100 amino acids) (other, Homo sapiens, UniProt Q86TG7 1-111, looked up)
chain: MTERRRDELSEEINNLREKVMKQSEENNNLQSQVQKLTEENTTLREQVEPTPEDEDDDIELRGAAAAAAPPPPIEEECPEDLPEKFDGNPDMLAPFMAQCQIFMEKSTRDF
notes: A band on the blot; The construct that mimics it (AA1-111) is m6; also called NTF; shorter proteolytically cleaved N-terminal fragment; not shown: 2x HA tag (N-terminal) of the parent HA-PEG10 construct
Consider B1, for which the binding result in assay [2] is “no binding”.

B2: HA-N-terminal fragment construct (2x HA-tagged human PEG10, AA1-111) (other, Homo sapiens, UniProt Q86TG7 1-111, looked up)
chain: B1 chain
notes: range 1-111; Truncation construct that mimics the natural self-cleavage of PEG10; also called HA-NTF; not shown: 2x HA tag (N-terminal)
As for B2, the binding result in assay [3] is reported as “no binding”.

B3: HA-capsid^CTD (human PEG10, AA161-259, 1x HA C-terminal) (other, Homo sapiens, UniProt Q86TG7 161-259, looked up)
chain: PQRREVAKRKIRRLRQGMGSVIDYSNAFQMIAQDLDWNEPALIDQYHEGLSDHIQEELSHLEVAKSLSALIGQCIHIERRLARAAAARKPRSPPRALVL
notes: range 161-259; not shown: 1x HA tag (C-terminal)
As to B3, the binding result in assay [2] is “no binding”.

These data come from patent publication US20260218135A1 (REGENTS OF THE UNIVERSITY OF COLORADO A BODY CORPORATE, published 2026).
